The source of these data is patent US20200407447A1 (CEINGEBIOTECNOLOGIE AVANZATE FRANCO SALVATORE SCARL, published 2020).

Assay [1] addresses T1, human PD-1 on activated hPBMCs (human, UniProt Q15116 25-288).
T1 construct: whole, on cells; also called cognate receptor expressed on hPBMCs
As to the kind of experiment: cell ELISA on activated hPBMCs (apparent Kd, legend paragraph 26) [continued]. As for the experimental part: (§1) FIG. 2: Binding affinity of the selected antibodies for lymphocytes. The ELISA assays were performed with mAbs used at increasing concentrations (7.5 nM, 25 nM, 50 nM, 100 nM) on activated hPBMCs (black curves) or untreated hPBMCs (grey curves).
(§2) Plates were then centrifuged, cell pellets were washed with PBS and incubated with HRP-conjugated anti-human IgG goat polyclonal antibody for 1 hour at room temperature. Following additional washes in PBS 1×, TMB reagent was added for 10 min before quenching with an equal volume of 1N HCl. Absorbance at 450 nm was measured by the Envision plate reader (Perkin Elmer, Waltham, Mass., USA).
On the technique in general: An ELISA detects its analyte on a solid surface through an enzyme-linked reagent.

Assay [2] addresses T2, human PD-1/Fc recombinant chimeric protein (R&D Systems) (human, UniProt Q15116 25-167).
T2 construct: Bought from R&D Systems; also called rhPD-1; recombinant protein/Fc
The assay is described as follows: ELISA on coated recombinant PD-1/Fc, mAb at increasing concentrations (apparent Kd, legend paragraph 26) [continued]. The procedure: as §1
(§3) To confirm the binding specificity of the purified mAbs, ELISA assays were performed on chimeric proteins (coated at 5 μg/ml), tumor cells (PD-L1-positive breast cancer MDA-MB-231 cells or PD-L1-negative breast cancer MCF7), and untreated or activated hPBMCs. The ELISA assays on coated chimeric protein were performed by coating Nunc™ flat-bottom 96-well plates (Fisher Scientific, Thermo Fisher Scientific) with 5 μg/ml […], […] and rhLAG-3 recombinant proteins in a solution of 0.05 M NaHCO₃ for 72 hours at 37° C. […] After extensive washes with PBS, the plates were incubated with (HRP)-conjugated anti-human IgG (Fab′)2 goat monoclonal antibody (Abcam, Cambridge, UK) for 1 hour, washed again and incubated with TMB reagent for 10 min before quenching with an equal volume of 1N HCl.

Assay [3] addresses T3, human LAG-3 on activated hPBMCs (human, UniProt P18627 23-525).
T3 construct: whole, on cells; also called cognate receptor expressed on hPBMCs
T3 sequence (looked up): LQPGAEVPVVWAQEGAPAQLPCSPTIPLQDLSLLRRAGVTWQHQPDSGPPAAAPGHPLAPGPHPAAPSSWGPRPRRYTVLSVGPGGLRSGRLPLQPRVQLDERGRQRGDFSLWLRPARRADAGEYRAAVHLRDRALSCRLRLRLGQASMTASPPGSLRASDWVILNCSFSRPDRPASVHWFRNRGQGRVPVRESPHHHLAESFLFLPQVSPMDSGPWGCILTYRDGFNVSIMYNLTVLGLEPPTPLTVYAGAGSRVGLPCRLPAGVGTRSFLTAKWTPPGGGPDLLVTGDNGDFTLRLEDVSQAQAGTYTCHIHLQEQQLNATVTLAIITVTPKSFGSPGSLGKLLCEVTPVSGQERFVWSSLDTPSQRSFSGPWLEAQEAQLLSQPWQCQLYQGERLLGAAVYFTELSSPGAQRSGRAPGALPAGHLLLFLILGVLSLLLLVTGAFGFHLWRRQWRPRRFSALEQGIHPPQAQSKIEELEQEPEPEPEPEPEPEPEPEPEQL
The assay is described as follows: cell ELISA on activated hPBMCs (apparent Kd, legend paragraph 26). As for the experimental part:
as §1, §2

Assay [4] deals with T4, human LAG-3/Fc recombinant chimeric protein (R&D Systems) (human, UniProt P18627 23-450).
T4 construct: Bought from R&D Systems; also called rhLAG-3; recombinant protein/Fc
T4 sequence (looked up): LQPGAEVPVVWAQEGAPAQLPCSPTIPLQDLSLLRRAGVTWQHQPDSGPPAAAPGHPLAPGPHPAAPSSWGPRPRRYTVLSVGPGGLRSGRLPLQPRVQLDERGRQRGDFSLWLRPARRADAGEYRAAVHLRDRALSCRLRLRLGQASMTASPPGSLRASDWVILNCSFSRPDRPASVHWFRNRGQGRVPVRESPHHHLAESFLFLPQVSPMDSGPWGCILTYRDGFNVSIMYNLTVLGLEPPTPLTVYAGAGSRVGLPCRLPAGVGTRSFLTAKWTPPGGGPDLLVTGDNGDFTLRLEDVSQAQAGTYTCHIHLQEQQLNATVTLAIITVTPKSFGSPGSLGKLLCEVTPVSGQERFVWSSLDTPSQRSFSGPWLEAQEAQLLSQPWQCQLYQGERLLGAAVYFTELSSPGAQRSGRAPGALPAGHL
The assay is described as follows: ELISA on coated recombinant LAG-3/Fc, mAb at increasing concentrations (apparent Kd, legend paragraph 26). The procedure: as §1, §3

Assay [5] deals with T5, human PD-L1 on cells (activated hPBMCs; MDA-MB-231 tumor cells) (human, UniProt Q9NZQ7 19-290).
T5 construct: whole, on cells; also called PD-L protein
T5 sequence (Q9NZQ7 19-290): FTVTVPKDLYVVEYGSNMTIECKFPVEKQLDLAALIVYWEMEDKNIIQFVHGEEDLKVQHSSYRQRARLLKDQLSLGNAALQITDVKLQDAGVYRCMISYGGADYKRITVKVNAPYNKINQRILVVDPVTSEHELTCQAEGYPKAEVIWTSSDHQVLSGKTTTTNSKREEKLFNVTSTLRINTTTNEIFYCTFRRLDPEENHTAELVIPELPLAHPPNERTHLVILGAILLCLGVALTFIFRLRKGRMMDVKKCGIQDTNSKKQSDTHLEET
The assay is described as follows: flow cytometry on hPBMCs activated with anti-CD3/CD28 beads, MFI against IgG concentration. As for the experimental part: Human PBMCs isolated from healthy donors were activated with anti-CD3/CD28 beads to stimulate PD-L1 expression.
The human peripheral blood mononuclear cells (hPBMCs) isolated from healthy donors were thawed in RPMI 1640 medium (Gibco), supplemented with 2 mM L-glutamine, 10% (v/v) CTL wash supplement (CTL, Shaker Heights, Ohio, USA), 100 U/ml Benzonase (Merck Millipore, Burlington, Mass., United States). After centrifugation at 1200 rpm for 10 min, they were resuspended in complete RPMI medium supplemented with 10% (v/v) heat-inactivated fetal bovine serum (FBS, Sigma), 2 mM L-glutamine, 100 U/ml penicillin and 100 µg/ml streptomicin (Gibco), HEPES 10 mM (Gibco). After resting for 16 h at 37° C. in a humidified atmosphere with 5% CO2, hPBMCs were counted, resuspended at a concentration of 10\hat{ }6 viable cells/ml in complete RPMI medium (as above) and activated with Dynabeads Human T-Activator CD3/CD28 (Gibco), 25 μl beads/10\hat{ }6 viable cells. 24 h post activation, the cells were centrifuged and plated at 4×10\hat{ }5 cells/well in PBS in a 96 well plate with round bottom. After one wash in PBS, they were incubated with 50 μl LIVE/DEAD™ Fixable Violet Dead Cell Stain (Invitrogen) for 30 min at +4° C. and washed once again.
On the technique in general: A flow cytometer gives signals particle by particle.

Assay [6] deals with T5, human PD-L1 on cells (activated hPBMCs; …). As to the kind of experiment: cell ELISA on MDA-MB-231 tumor cells expressing PD-L1 (apparent Kd) [continued]. The procedure: as §2
For assay [7] the target is unchanged. As to the kind of experiment: cell ELISA on activated hPBMCs (apparent Kd, legend paragraph 26) [continued]. As for the experimental part:
as §1, §2

Assay [8] addresses T6, human PD-L1/Fc recombinant chimeric protein (R&D Systems) (human, UniProt Q9NZQ7 19-239).
T6 construct: Bought from R&D Systems; also called recombinant protein/Fc
As to the kind of experiment: ELISA on coated recombinant PD-L1/Fc, mAb at increasing concentrations (apparent Kd, legend paragraph 26) [continued]. The procedure: as §1, §3

T2 sequence (Q15116 25-167, change not shown): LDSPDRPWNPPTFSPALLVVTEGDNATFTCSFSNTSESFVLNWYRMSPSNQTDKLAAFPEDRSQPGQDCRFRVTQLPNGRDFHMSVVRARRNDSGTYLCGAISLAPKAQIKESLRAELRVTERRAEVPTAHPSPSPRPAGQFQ
T1 sequence (Q15116 25-288): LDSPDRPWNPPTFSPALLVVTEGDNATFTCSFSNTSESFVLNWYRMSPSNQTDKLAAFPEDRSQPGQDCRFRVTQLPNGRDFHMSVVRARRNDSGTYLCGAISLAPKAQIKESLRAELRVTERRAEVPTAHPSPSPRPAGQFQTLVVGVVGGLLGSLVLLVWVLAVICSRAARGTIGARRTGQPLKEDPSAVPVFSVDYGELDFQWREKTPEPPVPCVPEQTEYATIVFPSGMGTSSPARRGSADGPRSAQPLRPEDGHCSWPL
T6 sequence (Q9NZQ7 19-239, change not shown): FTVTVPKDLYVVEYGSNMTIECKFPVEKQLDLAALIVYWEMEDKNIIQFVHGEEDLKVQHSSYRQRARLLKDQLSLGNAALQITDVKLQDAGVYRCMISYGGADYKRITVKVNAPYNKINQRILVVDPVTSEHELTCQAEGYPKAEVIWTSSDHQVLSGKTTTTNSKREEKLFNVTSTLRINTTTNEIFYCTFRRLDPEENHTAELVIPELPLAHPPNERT

B1: PD-1_A (antibody, V domains shown)
VH: QVQLQESGPGVVKPSGTLSLTCAISGGSIGSGGSIRSTRWWSWVRQSPGKGLEWIGEIYHSGSTNYNPSLKSRVTISLDKSRNHFSLRLNSVTAADTAVYYCARQDYGDSGDWYFDLWGKGTLVTVSS
VL: AQAVLTQPSSVSGAPGQRVTISCTGSSSNIGAGYDVHWYQQLPGTAPKLLIYGNNNRPSGVPDRFSGSKSGTSASLAITGLQTEDEADYYCQSYDNSLSGEVFGGGTKVTVL
notes: also called mAb PD-1_A; anti-PD-1 antibody PD-1_A
As for B1, the Kd in assay [1] was determined as 0.14 nM; in assay [2], 0.15 nM.

B2: LAG-3_D (antibody, V domains shown)
VH: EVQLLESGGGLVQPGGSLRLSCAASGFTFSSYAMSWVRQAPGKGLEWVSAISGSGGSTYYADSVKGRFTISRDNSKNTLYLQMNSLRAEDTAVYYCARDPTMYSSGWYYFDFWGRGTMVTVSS
VL: ALSYVLTQPPSVSEAPRQRVTISCSGSSSNIGNNAVNWYQQLPGKAPKLLIYYDDLLPSGVSDRFSGSKSGTSASLAISGLQSEDEADYYCATWDDSLNGQVFGTGTKLTVL
Turning to B2, the Kd came out at 19 nM in assay [3] and 24 nM in assay [4].

B3: PD-1_B (antibody, V domains shown)
VH: QVQLVQSGAEVKKPGASVKVSCKASGYTFTSYGISWVRQAPGQGLEWMGWISAYNGNTNYAQKLQGRVTMTTDTSTSTAYMELRSLRSDDTAVYYCARDFGSGSYYDLDYWGQGTMVTVSS
VL: ANFMLTQPHSVSESPGKTVTISCTGSSGSIASNYVQWYQQRPGSAPTTVIYEDNQRPSGVPDRFSGSIDSSSNSASLTISGLKTEDEADYYCQSYDSNNHWVFGGGTKLTVL
notes: also called mAb PD-1_B
As to B3, the values for the Kd in assay [1] and in assay [2] were 0.6 nM and 0.29 nM, respectively.

B4: PD-L1_E (antibody, V domains shown)
VH: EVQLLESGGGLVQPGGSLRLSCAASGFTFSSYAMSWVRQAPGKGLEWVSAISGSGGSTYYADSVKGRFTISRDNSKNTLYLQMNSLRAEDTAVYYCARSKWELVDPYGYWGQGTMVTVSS
VL: ANFMLTQPHSVSESPGKTITISCTRSSGSIAGNYVQWYQQRPGSAPIIVIYEDNQRPSGVPDRFSGSIDSSSNSASLTISRLKTEDEADYYCQSYEASNVVFGGGTKLTVL
notes: Tested as a mAb detected with anti-human IgG Fc
On to B4, for which the binding result in assay [5] is on record as “binds”.

B5: PD-L1_C (antibody, V domains shown)
VH: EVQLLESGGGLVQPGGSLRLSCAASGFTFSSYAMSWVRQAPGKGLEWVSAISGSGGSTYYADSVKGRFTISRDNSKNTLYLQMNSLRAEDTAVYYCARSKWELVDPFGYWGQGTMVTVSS
VL: B4 VL
notes: as for B4
For the molecule B5, in assay [5], the EC50 (read off the curve) (commonly the concentration giving half of the maximal effect) was roughly 2 nM.

B6: PD-L1_B (antibody, V domains shown)
VH: QVQLVQSGAEVKKPGSSVEVSCKVSGNTVIGYAVSWVRQAPGQGPEWMGRLIPSVGLTNYAQKFQDRLTFTADTSTSTVTMALSSLTSEDTAMYYCARDVSPAVPVSQYWGQGTLVTVSS
VL: AQSVLTQPPSVSAAPGQKVIISCSGDSFNIGSHSVSWYKQLPGSAPKLLIYENNVRPSGIPDRFSGSKSGTSATLGITGLQTRDEADYYCGAWDSSLNGHWVFGGGTQLTVL
notes: also called mAb PD-L1_B
Consider B6, for which the figures for the Kd in assay [6], in assay [7] and in assay [8] were 0.74 nM, 0.1 nM and 0.46 nM, respectively.

B7: LAG-3_C (antibody, human IgG4, V domains shown)
VH: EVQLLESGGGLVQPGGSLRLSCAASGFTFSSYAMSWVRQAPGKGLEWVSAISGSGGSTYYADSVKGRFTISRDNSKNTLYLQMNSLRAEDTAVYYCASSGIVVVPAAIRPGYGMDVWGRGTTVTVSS
VL: AQAVLTQPSSVSGAPGQRVTISCTGSSSNIGAGYDVHWYQQLPGTAPKLLIYGNNNRPSGVPDRFSGSKSGTSASLAITGLQPEDEADYYCQSYDFGLSRVFGGGTKLTVL
notes: also called mAb LAG-3_C
Take B7: the results for the Kd in assay [3] and in assay [4] were 2.6 nM and 52 nM, respectively.

B8: LAG-3_A (antibody, human IgG4, V domains shown)
VH: EVQLLESGGGLVQPGGSLRLSCAASGFTFSSYAMSWVRQAPGKGLEWVSAISGSGGSTYYADSVKGRFTISRDNSKDTLYLQMNSLRAEDTAVYYCARDGPLYDISAGFVPISYYLDYWGQGTTVTVSS
VL: AQPVLTQPPSASGTPGQRVTISCSGSFSNIGSNYVFWYQQLPGTAPKLLISGNNQRPSGVPDRFSGSKSGTSASLAISGLRSQDEADYYCATWDDSLRGWVFGGGTKLTVL
notes: also called mAb LAG-3_A
Consider B8, for which the values for the Kd in assay [3] and in assay [4] were 6 nM and 38 nM, respectively.
